Data taken from patent US20220089784A1.

Columns and labels:
Experiment in all cases: yeast scFv FACS
[1] = target: BoNT/B2 (Clostridium botulinum)
[2] = target: BoNT/B4 (Clostridium botulinum)
[3] = target: BoNT/B3 (Clostridium botulinum)
[4] = target: BoNT/C1 or other subtypes

B1: 18A6 scFv (scFv)
scFv: EVQLQQSGPELVKPGASVKISCKASGYTFTDNYINWVKQRPGQGLEWIGWIYPGSGNTKYNEKFKGKATLTVDTSSNTAYMQLTGLASDDSAVYFCARVNFYVSWDYWGQGTSVTVSSVDLKSGGSTSGSGKPGSGEGSSGSAREIVLTQSPAIMSASPGEKVTMTCSASSSISYMHWFQQKPGMSPKRRIFDTSKLASGVPARFSGSGSGTSYSLTISSMEAEDAGTYYCHQRSSYPFTFGGGTKLELK
Kd [1]: 32.4 nM
Kd [2]: 30.6 nM
Kd [3]: 27.9 nM

B2: 19D22 scFv (scFv)
scFv: QIQLLQSGAELVRPGTSVKMSCKAAGYPFTSYWMGWVKQRPGHGLEWIGDIYPGGPYTNYNEKFKGKATLTADTSSSTAYMQFSSLTSEDSAIYYCALYGQVGSYAMDYWGQGTSVTVSSVDLKSGGSTSGSGKPGSGEGSSGSARQIVLTQSPAIMSASPGEKVTMTCSASSSVSYMYWYQQKPGSSPRLLIYDTSNLASGVPVRFSGSGSGTSYSLTISRMEAEDAATYYCQQWSSYPPITFGAGTKLEIK
Kd [1]: 5 nM
Kd [2]: 5.24 nM
Kd [3]: 3.77 nM

B3: 18E5 scFv (scFv)
scFv: EVQLQESGPELVKPGASVKISCKASGYTFTDHNMDWVKQSLGKSLEWIGDINPNNGGAVYNQNFKGKATLTVDKSSSTAYMELRSLTSEDTAVYYCARYGYYGYFDYWGQGTTLTVSSVDLKSGGSTSGSGKPGSGEGSSGSARQIVLTQSPAIMSASPGEKVTMTCRASSSVSSSYLHWYQQKPGSSPKLWIYSTSNLASGVPARFSGSGSGTSYSLTISSVEAEDAATYYCQQYDSSPSTFGAGTKLEIK
Kd [1]: 2.66 nM
Kd [2]: 1.36 nM
Kd [3]: 2.56 nM

B4: 26G5 scFv (scFv)
scFv: EVQLQESGPGLAKPSQTLSLTCSVTGYSITSDYWNWIRKFPGNKLEYMGYISYSGSTYYNPSLKSRISITRDTSKNQYYLQLNSVTTEDTATYYCARSFYDGYLYFDYWGQGTTVTVSSVDLKSGGSTSGSGKPGSGEGSSGSAREIVLTQSPAILSASPGEKVTMTCSASSSVSYMYWYQQKPGSSPRLLIYDTSNLASGVPARFSGSGSGTSYSLTISRVEAEDAATYYCQQWSSYPPTFGDGTRLEIK
Kd [1]: 30.5 nM

B5: 19A9 scFv (scFv)
scFv: EVQLQQPGSELARPGASVKLSCKASGYTFTSYPITWVKQTTGQGLEWIGEIYPRSGNTYYNEKFKGKATLTADKSSSTAYMELRSLTSEDSAVYFCARDYYDYAGGGRGYWGQGTTLTVSSVDLKSGGSTSGSGKPGSGEGSSGSARDIVLTQSPAIMSASPGGKITITCSASSSVSYMHWFQQKPGTSPKLWIYSTSNLASGVPARFSGSGSGTSYSLTISRMEAEDAATYYCQQRSSYPYTFGGGTKLEIK
Kd [1]: 0.88 nM
Kd [2]: 1.04 nM
Kd [3]: 1.18 nM

B6: 16B3 scFv (scFv)
scFv: EVQLQQSGPELVKPGASVKITCKASGYTFTDNNMDWVKQSHGKSLEWIGDINPNNGGSIYNQKFKGKASLTLDKSSSTAYMELRSLTSEDTAVYYCARWGYYGSLAYWGQGTLVTVSSVDLKSGGSTSGSGKPGSGEGSSGSARQNVLTQSPAIMSASPGEKVTMTCSASSSVSSRYLHWYQQKSGASPKLWIYGTSNLASGVPARFSGSGSGTSYSLTISSVEAEDAATYYCQQYHSDPLTFGGGTKLEIK
Kd [1]: 0.75 nM
Kd [2]: 0.71 nM
Kd [3]: 0.49 nM

B7: 19B6 scFv (scFv)
scFv: QVQLQQSGAELVKPGASVKISCKASGYTFTDNYINWVKQRPGQGLEWIGWIHPGSGNAKYNEKFRAKATLTVDTSSNTAYMQLSSLTSEDSAVYFCARVGFRVNFDYWGQGTTLTVSSVDLKSGGSTSGSGKPGSGEGSSGSARQIVLTQSPAIMSASPGEKVTMTCSASSSLSYVHWYQQKPGSSPKPWIYATSNLVSGVPARFSGSRSGTSYSLTISSMEAEDAATYYCQQWSSYPPTFGAGTKLEIK
Kd [1]: 35.6 nM
Kd [2]: 43.5 nM
Kd [3]: 866 nM

B8: 18F2 scFv (scFv)
scFv: EVQLQQSGPELMKPGASVKISCKASGYAFSRSWMNWVKQRPGKGLEWIGRIYPGDGDTNYNGKFKDKASLTADTSSSTAYMQLSSLTSEDSAVYFCTKSEGYYHNLGAYWGQGTTVTVSSVDLKSGGSTSGSGKPGSGEGSSGSAREIVLTQSPAIMSASPGQKVTITCSASSSVSYMHWYQQKSGTSPKRWIYDTSKLASGVPARFSGSGSGTSYSLIISSMEAEDAATYYCQQWRSNPPTFGGGTRLEIK
Kd [1]: 8.75 nM

B9: 26E6 scFv (scFv)
scFv: EVQLQQSGPELVKPGASVKISCKASGYTFADYYINWVKQSHGKSLEWIGDFNPNNGDHSYNQKFKDKATLTVDESSNTAYMELRSLTSEDSAVYYCTREFYYYFDVWGTGTTVTVSSVDLKSGGSTSGSGKPGSGEGSSGSARDIVMSQSPLSLPVSLGDQAFISCRFSQSIVHSNGNTYLEWYLQKPGQSPKLLIYKVSNRFSGVPDRFSGSGSGTDFTLKISRVEAEDLGVYYCFQGSHVPYTFGGGTKLEIK
Kd [1]: 17.6 nM

B10: 8DC3 scFv (scFv, V domains shown)
VH: QVQLVQSGGGLVKPGGSLRLSCAASGFTFSSHSMNWVRQAPGKGLEWVSSISSSSSYIYYADSVKGRFTISRDNSKNSLYLQLNSLRAEDTAVYYCARGDHDFRSGYYGMDVWGQGTMVTVSS
VL: AELTQDPAVSVALGQTVRITCQGDSLRNYYASWYQQKPGQAPVLVIYGKNIRPSGIPDRFSGSSSGNTASLTITGAQAEDEADYYCNSRDSNGNHYVFGTGTKVTVL
Kd [4]: > 20 nM

B11: 19D2 scFv (scFv)
scFv: EVQLQQSGGELARPGSSVKLSCKASGYSFTGYSLTWVKQTPGQGLEWIGEIYPRSGNTYYNENFQGKATLTADESSSTAYMELRSLTSEDSAVYFCARDFYDYDGGGRGYWGQGTTLTVSSVDLKSGGSTSGSGKPGSGEGSSGSARDIVMTQTPAIMSASPGEKVTITCSASSSVSYMHWYQQKPGTSPKLWIYSTSNLASGVPARFSGSGSGTSYSLTISRMEAEDAATYYCQQRSSYPYTFGGGTKLEIK
Kd [1]: 1.85 nM
Kd [2]: 1.84 nM
Kd [3]: 1.47 nM

B12: 26B2 scFv (scFv)
scFv: DVQLQESGPELVKPGASVKISCKASGYTFADYYINWVKQSHGKSLEWIGDFNPNNGDHSYNQKFKDKATLTVDESSNTAYMELRSLTSEDSAVYYCTREFYYYFDVWGTGTSVTVSSVDLKSGGSTSGSGKPGSGEGSSGSARDIEMTQTPAIMSASPGEKVTMTCSASSSVSSRYLHWYQQKSGASPKLWIYGTSNLASGVPARFSGSGSGTSYSLTISNVEAEDAATYYCQQYHSDPLTFGAGTKLEIK
Kd [1]: 5.43 nM

B13: 18D10 scFv (scFv)
scFv: QVQLKQSGIEVMKPGASVKLSCKASGYPFTAYWIEWVKQRPGHGLEWIGEFLPGGISTNFNEKFKGKATFSADTSSNSAYIQLNSLTTEDSAIYYCVLTGTGFDYWGQGTSVTVSSVDLKSGGSTSGSGKPGSGEGSSGSARENVLTQSPAIMSASPGEKVTMTCSASSSVSYMHWYQQKSGTSPKRWIYDTSKLASGVPARFSGSGSGTSYSLTISSMEAEDAATYYCQQWSSNPLTFGAGTKLELK
Kd [1]: 5.57 nM
Kd [2]: 4.2 nM
Kd [3]: 3.35 nM

B14: 26D9 scFv (scFv)
scFv: DVQLQESGAELVKPGASVKLSCKASGFTFTDYWMHWVKQRPGQGLEWIGMIHPYNGDNNYHEKFKSKATLTVDKSSSTAYMQLSSLTTEDSAVYYCVRNDYDPYYYALDYWGQGTSLTVSAVDLKSGGSTSGSGKPGSGEGSSGSARQIVLTQSPAIMSASPGEKVTMSCRASSSVSYVYWYQQKPGSSPKPWIYRTSNLASGVPVRFSGSGSGTSYSLTISRVEAEDAATYYCQQWSSYPPTFGGGTKLEIK
Kd [1]: 0.467 nM
